Data reported in paper PMC6854500.

Tests used:
[1] = molecular target: PEDV CV777 S soluble ectodomain (residues 1 to 1319) with C-terminal T4 fibritin trimerization motif (porcine epidemic diarrhea virus, strain CV777 | bacteriophage T4) (UniProt Q91AV1); test: SEC; Superose6 10/300 column, 2 mM Tris (pH 8.0), 200 mM NaCl, 0.02% NaN3; single symmetrical peak
[2] = molecular target: PEDV CV777 S soluble ectodomain (residues 1 to 1319) with C-terminal T4 fibritin trimerization motif (porcine epidemic diarrhea virus, strain CV777 | bacteriophage T4) (UniProt Q91AV1); test: cryo-EM structure; PEDV S CV777 at 0.4 mg/ml in 2 mM Tris (pH 8.0), 200 mM NaCl, 0.02% NaN3, 0.01% Amphipol A8-35; Titan Krios 300 kV; 3.3 Å without symmetry, 3.1 Å with C3; a 10-Å reconstruction with 2 mM 3'-sialyllactose was indistinguishable
[3] = molecular target: dissociated PEDV CV777 S1 subunit (S1 ring) (porcine epidemic diarrhea virus, strain CV777) (UniProt Q91AV1); test: cryo-EM structure; roughly 10% of the particles of the PEDV CV777 S data set, 2D classes and a 9.4-Å reconstruction without imposed symmetry (C1)

Substance	stoichiometry N [1]	stoichiometry N [2]	stoichiometry N [3]
PEDV CV777 S soluble ectodomain (residues 1 to 1319) with C-terminal T4 fibritin trimerization motif (from UniProt Q91AV1 26-1319) (domain or fragment)	3	3	
dissociated PEDV CV777 S1 subunit (S1 ring) (from UniProt Q91AV1 26-1383) (domain or fragment)			3
